Results on one molecule are retold here after publication PMC10484734, “TLK1-mediated RAD54 phosphorylation spatio-temporally regulates Homologous Recombination Repair” (Nucleic Acids Research, 2023).

Assay [1] addresses T1, RAD54-T41, T59D (RAD54-T2D), recombinant (human, UniProt Q92698 1-747, T41D | T59D).
T1 construct: human RAD54 (RAD54L) with the phosphomimic changes T41D and T59D; also called NTD phosphomimic; source: recombinant, purified
T1 sequence (looked up): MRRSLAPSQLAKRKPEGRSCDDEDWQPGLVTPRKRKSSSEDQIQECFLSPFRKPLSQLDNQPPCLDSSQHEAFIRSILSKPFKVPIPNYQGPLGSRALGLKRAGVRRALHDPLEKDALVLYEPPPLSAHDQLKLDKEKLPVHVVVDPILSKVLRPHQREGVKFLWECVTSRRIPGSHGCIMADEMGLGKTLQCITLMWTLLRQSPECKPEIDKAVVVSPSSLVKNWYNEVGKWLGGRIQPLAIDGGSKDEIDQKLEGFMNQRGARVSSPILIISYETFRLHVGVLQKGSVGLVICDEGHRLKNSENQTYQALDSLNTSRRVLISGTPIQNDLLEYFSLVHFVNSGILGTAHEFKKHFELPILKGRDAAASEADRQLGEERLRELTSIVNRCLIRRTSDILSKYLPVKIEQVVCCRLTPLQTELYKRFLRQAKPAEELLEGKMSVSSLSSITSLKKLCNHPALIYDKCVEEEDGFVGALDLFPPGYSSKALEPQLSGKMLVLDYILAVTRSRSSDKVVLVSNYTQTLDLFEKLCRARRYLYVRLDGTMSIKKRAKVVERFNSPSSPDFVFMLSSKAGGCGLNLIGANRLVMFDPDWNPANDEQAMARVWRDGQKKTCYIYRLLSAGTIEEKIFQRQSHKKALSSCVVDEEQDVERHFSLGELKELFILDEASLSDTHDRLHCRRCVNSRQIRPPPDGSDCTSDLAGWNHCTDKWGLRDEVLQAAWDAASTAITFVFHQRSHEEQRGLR
Nature of the assay: pull-down; purified RAD54 forms with RAD51; reactions eluted from beads, eluate and supernatant on silver-stained gels, quantified; which protein was held on the beads is not told. The note with it: both partners purified.

The next assay concerns the target T2, RAD54-T700D, recombinant (human, UniProt Q92698 1-747, T700D).
T2 construct: human RAD54 (RAD54L) with the phosphomimic change T700D; also called purified RAD54-T700D; CTD mutant; source: recombinant, purified
T2 sequence (looked up): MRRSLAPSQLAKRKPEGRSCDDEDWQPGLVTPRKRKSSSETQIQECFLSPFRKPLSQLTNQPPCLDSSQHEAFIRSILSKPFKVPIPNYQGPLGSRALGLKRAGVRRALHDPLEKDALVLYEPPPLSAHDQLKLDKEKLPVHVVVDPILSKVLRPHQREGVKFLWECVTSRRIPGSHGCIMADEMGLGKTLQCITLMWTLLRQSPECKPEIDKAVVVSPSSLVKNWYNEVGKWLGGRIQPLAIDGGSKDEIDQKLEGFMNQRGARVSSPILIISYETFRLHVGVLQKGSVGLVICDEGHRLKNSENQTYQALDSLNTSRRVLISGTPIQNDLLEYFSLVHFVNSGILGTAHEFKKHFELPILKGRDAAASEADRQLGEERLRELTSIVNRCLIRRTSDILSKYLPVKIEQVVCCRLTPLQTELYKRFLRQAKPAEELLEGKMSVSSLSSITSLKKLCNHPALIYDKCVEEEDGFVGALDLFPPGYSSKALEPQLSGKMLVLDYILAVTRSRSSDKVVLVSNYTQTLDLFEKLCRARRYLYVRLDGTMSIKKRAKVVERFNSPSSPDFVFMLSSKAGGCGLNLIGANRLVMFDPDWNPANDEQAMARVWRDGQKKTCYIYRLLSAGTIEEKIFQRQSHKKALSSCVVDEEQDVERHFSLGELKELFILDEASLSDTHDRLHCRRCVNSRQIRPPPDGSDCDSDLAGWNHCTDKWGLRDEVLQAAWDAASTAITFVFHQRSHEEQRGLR
Described as above. As to conditions: both partners purified.

B1: recombinant human RAD51 (natural protein, UniProt Q06609 1-339, looked up)
chain: MAMQMQLEANADTSVEEESFGPQPISRLEQCGINANDVKKLEEAGFHTVEAVAYAPKKELINIKGISEAKADKILAEAAKLVPMGFTTATEFHQRRSEIIQITTGSKELDKLLQGGIETGSITEMFGEFRTGKTQICHTLAVTCQLPIDRGGGEGKAMYIDTEGTFRPERLLAVAERYGLSGSDVLDNVAYARAFNTDHQTQLLYQASAMMVESRYALLIVDSATALYRTDYSGRGELSARQMHLARFLRMLLRLADEFGVAVVITNQVVAQVDGAAMFAADPKKPIGGNIIAHASTTRLYLRKGRGETRICKIYDSPCLPEAEAMFAINADGVGDAKD
notes: human RAD51 recombinase; also called rc-RAD51
For B1, the binding result in assay [1] is “binds”; with RAD54-T700D, recombinant, “binds”.
